Test results from patent publication US20220324969A1 (MYTHIC THERAPEUTICS, published 2022).
Substitutions are numbered along the chain they refer to. Names and notes keep the numbering of the source.

B1: MYT1166 (antibody, V domains shown)
VH: EVQLVQSGAEVKKPGSSVKVSCKASGYTITDHNIHWVRQAPGQSLEWIGYIHPYNGGTDYNQKFKNRATLTVDNPTNTAYMELSSLRSEDTDFYYCVNGNPWLAYWGQGTLVTVSS
VL: DIQLTQSPSTLSASVGDRVTITCRASESLDNYGIRFLTWFQQKPGKAPKLLMYAASNQGSGVPSRFSGSGSGTEFTLTISSLQPDDFATYYCQQTKEVPWSFGQGTKVEVK
notes: IgG; gemtuzumab VH combination #5 (S32H+Y52H)
B2: MYT1168 (antibody, V domains shown)
VH: B1 VH with H52Y, G57H
VL: B1 VL
notes: IgG; gemtuzumab VH combination #7 (S32H+G57H)
B3: MYT1615 (antibody, V domains shown)
VH: B1 VH with H32S, H52Y
VL: B1 VL with K96H
notes: IgG; gemtuzumab VL variant #26 (K96H)
B4: MYT1599 (antibody, V domains shown)
VH: B1 VH with H32S, H52Y
VL: B1 VL with G33H
notes: IgG; gemtuzumab VL variant #10 (G33H)
B5: MYT1612 (antibody, V domains shown)
VH: B1 VH with H32S, H52Y
VL: B1 VL with Q93H
notes: IgG; gemtuzumab VL variant #23 (Q93H)
B6: MYT1180 (antibody, V domains shown)
VH: B1 VH with H52Y, Y54H, G57H
VL: B1 VL
notes: IgG; gemtuzumab VH combination #19 (S32H+Y54H+G57H)
B7: MYT1611 (antibody, V domains shown)
VH: B1 VH with H32S, H52Y
VL: B1 VL with S60H
notes: IgG; gemtuzumab VL variant #22 (S60H)
B8: MYT1594 (antibody, V domains shown)
VH: B1 VH with H32S, H52Y
VL: B1 VL with S28H
notes: IgG; gemtuzumab VL variant #5 (S28H)
B9: MYT1171 (antibody, V domains shown)
VH: B1 VH with H32S, H52Y, Y54H, G57H
VL: B1 VL
notes: IgG; gemtuzumab VH combination #10 (Y54H+G57H)
B10: MYT1170 (antibody, V domains shown)
VH: B1 VH with H32S, G57H
VL: B1 VL
notes: IgG; gemtuzumab VH combination #9 (Y52H+G57H)
B11: MYT1617 (antibody, V domains shown)
VH: B1 VH with H32S, H52Y
VL: B1 VL with V98H
notes: IgG; gemtuzumab VL variant #28 (V98H)
B12: MYT1606 (antibody, V domains shown)
VH: B1 VH with H32S, H52Y
VL: B1 VL with A55H
notes: IgG; gemtuzumab VL variant #17 (A55H)
B13: MYT1608 (antibody, V domains shown)
VH: B1 VH with H32S, H52Y
VL: B1 VL with N57H
notes: IgG; gemtuzumab VL variant #19 (N57H)
B14: MYT1593 (antibody, V domains shown)
VH: B1 VH with H32S, H52Y
VL: B1 VL with E27H
notes: IgG; gemtuzumab VL variant #4 (E27H)
B15: MYT1616 (antibody, V domains shown)
VH: B1 VH with H32S, H52Y
VL: B1 VL with E97H
notes: IgG; gemtuzumab VL variant #27 (E97H)
B16: MYT1620 (antibody, V domains shown)
VH: B1 VH with H32S, H52Y
VL: B1 VL with S101H
notes: IgG; gemtuzumab VL variant #31 (S101H)
B17: MYT1605 (antibody, V domains shown)
VH: B1 VH with H32S, H52Y
VL: B1 VL with A54H
notes: IgG; gemtuzumab VL variant #16 (A54H)
B18: MYT1610 (antibody, V domains shown)
VH: B1 VH with H32S, H52Y
VL: B1 VL with G59H
notes: IgG; gemtuzumab VL variant #21 (G59H)
B19: MYT1597 (antibody, V domains shown)
VH: B1 VH with H32S, H52Y
VL: B1 VL with N31H
notes: IgG; gemtuzumab VL variant #8 (N31H)
B20: MYT1167 (antibody, V domains shown)
VH: B1 VH with H52Y, Y54H
VL: B1 VL
notes: IgG; gemtuzumab VH combination #6 (S32H+Y54H)
B21: MYT1181 (antibody, V domains shown)
VH: B1 VH with H32S, Y54H, G57H
VL: B1 VL
notes: IgG; gemtuzumab VH combination #20 (Y52H+Y54H+G57H)
B22: MYT1174 (antibody, V domains shown)
VH: B1 VH with I29H, H52Y, G57H
VL: B1 VL
notes: IgG; gemtuzumab VH combination #13 (I29H+S32H+G57H)
B23: MYT1609 (antibody, V domains shown)
VH: B1 VH with H32S, H52Y
VL: B1 VL with Q58H
notes: IgG; gemtuzumab VL variant #20 (Q58H)
B24: MYT1613 (antibody, V domains shown)
VH: B1 VH with H32S, H52Y
VL: B1 VL with Q94H
notes: IgG; gemtuzumab VL variant #24 (Q94H)
B25: MYT1590 (antibody, V domains shown)
VH: B1 VH with H32S, H52Y
VL: B1 VL with R24H
notes: IgG; gemtuzumab VL variant #1 (R24H)
B26: MYT1604 (antibody, V domains shown)
VH: B1 VH with H32S, H52Y
VL: B1 VL with T38H
notes: IgG; gemtuzumab VL variant #15 (T38H)
B27: MYT1177 (antibody, V domains shown)
VH: B1 VH with I29H, H32S, H52Y, Y54H, G57H
VL: B1 VL
notes: IgG; gemtuzumab VH combination #16 (I29H+Y54H+G57H)
B28: MYT1607 (antibody, V domains shown)
VH: B1 VH with H32S, H52Y
VL: B1 VL with S56H
notes: IgG; gemtuzumab VL variant #18 (S56H)
B29: MYT1601 (antibody, V domains shown)
VH: B1 VH with H32S, H52Y
VL: B1 VL with R35H
notes: IgG; gemtuzumab VL variant #12 (R35H)
B30: MYT1596 (antibody, V domains shown)
VH: B1 VH with H32S, H52Y
VL: B1 VL with D30H
notes: IgG; gemtuzumab VL variant #7 (D30H)
B31: MYT1176 (antibody, V domains shown)
VH: B1 VH with I29H, H32S, G57H
VL: B1 VL
notes: IgG; gemtuzumab VH combination #15 (I29H+Y52H+G57H)
B32: MYT1169 (antibody, V domains shown)
VH: B1 VH with H32S, Y54H
VL: B1 VL
notes: IgG; gemtuzumab VH combination #8 (Y52H+Y54H)
B33: MYT1602 (antibody, V domains shown)
VH: B1 VH with H32S, H52Y
VL: B1 VL with F36H
notes: IgG; gemtuzumab VL variant #13 (F36H)
B34: MYT1598 (antibody, V domains shown)
VH: B1 VH with H32S, H52Y
VL: B1 VL with Y32H
notes: IgG; gemtuzumab VL variant #9 (Y32H)
B35: MYT1179 (antibody, V domains shown)
VH: B1 VH with G57H
VL: B1 VL
notes: IgG; gemtuzumab VH combination #18 (S32H+Y52H+G57H)
B36: MYT1178 (antibody, V domains shown)
VH: B1 VH with Y54H
VL: B1 VL
notes: IgG; gemtuzumab VH combination #17 (S32H+Y52H+Y54H)
B37: MYT1614 (antibody, V domains shown)
VH: B1 VH with H32S, H52Y
VL: B1 VL with T95H
notes: IgG; gemtuzumab VL variant #25 (T95H)
B38: MYT1619 (antibody, V domains shown)
VH: B1 VH with H32S, H52Y
VL: B1 VL with W100H
notes: IgG; gemtuzumab VL variant #30 (W100H)
B39: MYT1213 (antibody, V domains shown)
VH: QVQLQQPGAEVVKPGASVKMSCKASHYTFTSYYIHWIKQTPGQGLEWVGVIYPGNDDISYNQKFQGKATLTADKSSTTAYMQLSSLTSEDSAVYYCAREVRLRYFDVWGQGTTVTVSS
VL: EIVLTQSPGSLAVSPGERVTMSCKSSQSVFFSSSQKNYLAWYQQIPGQSPRLLIYWASTRESGVPDRFTGSGSGTDFTLTISSVQPEDLAIYYCHQYLSSRTFGQGTKLEIK
notes: IgG; IMGN779 VH variant #1 (G26H)
B40: MYT1217 (antibody, V domains shown)
VH: B39 VH with H26G, T30H
VL: B39 VL
notes: IgG; IMGN779 VH variant #5 (T30H)
B41: MYT1219 (antibody, V domains shown)
VH: B39 VH with H26G, Y32H
VL: B39 VL
notes: IgG; IMGN779 VH variant #7 (Y32H)
B42: MYT1218 (antibody, V domains shown)
VH: B39 VH with H26G, S31H
VL: B39 VL
notes: IgG; IMGN779 VH variant #6 (S31H)
B43: MYT1216 (antibody, V domains shown)
VH: B39 VH with H26G, F29H
VL: B39 VL
notes: IgG; IMGN779 VH variant #4 (F29H)
B44: MYT1214 (antibody, V domains shown)
VH: B39 VH with H26G, Y27H
VL: B39 VL
notes: IgG; IMGN779 VH variant #2 (Y27H)
B45: MYT1215 (antibody, V domains shown)
VH: B39 VH with H26G, T28H
VL: B39 VL
notes: IgG; IMGN779 VH variant #3 (T28H)

These binders were tested against CD33 (Sino Biological, Cat #12238-H08H) (UniProt P20138 18-259) (assay: BLI, IgG captured on anti-human Fc sensor, 50 nM CD33, pH 7.4 vs pH 5.4).
Chain of CD33 (Sino Biological, Cat #12238-H08H) (P20138 18-259 limits assumed): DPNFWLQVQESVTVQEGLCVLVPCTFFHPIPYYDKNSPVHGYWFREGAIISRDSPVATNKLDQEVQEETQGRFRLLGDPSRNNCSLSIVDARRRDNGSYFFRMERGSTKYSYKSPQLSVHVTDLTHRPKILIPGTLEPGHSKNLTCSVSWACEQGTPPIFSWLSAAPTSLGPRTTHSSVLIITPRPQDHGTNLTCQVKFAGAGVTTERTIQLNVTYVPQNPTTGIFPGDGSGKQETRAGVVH

binding result | Binder
binds | B1
binds | B2
binds | B3
binds | B4
binds | B5
binds | B6
binds | B7
binds | B8
binds | B9
binds | B10
binds | B11
binds | B12
binds | B13
binds | B14
binds | B15
binds | B16
binds | B17
binds | B18
binds | B19
binds | B20
binds | B21
binds | B22
binds | B23

binding result | Binder
binds | B24
binds | B25
binds | B26
binds | B27
binds | B28
binds | B29
binds | B30
binds | B31
binds | B32
binds | B33
binds | B34
binds | B35
binds | B36
binds | B37
binds | B38
binds | B39
binds | B40
binds | B41
binds | B42
binds | B43
binds | B44
binds | B45
